Reference: US20240254248A1 (JIANGSU HENGRUI MEDICINE, published 2024)
Read-outs that look alike come from different tables or passages of the source. One block for each binder: values may come before it.

What was measured:
[1] = biological target: T1, CD40 on HEK293-CD40 cells; assay: binding to HEK293-CD40 cells
T1 construct: whole, on cells

[2] = biological target: T2, human CD40 (hCD40) (human, UniProt P25942 21-193); assay: ELISA blocking of hCD40/hCD40L binding
[3] = biological target: T1, CD40 on HEK293-CD40 cells; assay: binding to HEK293-CD40 cells; remark: listed apart in the source
[4] = biological target: T2, human CD40 (hCD40); assay: ELISA blocking of hCD40/hCD40L binding; remark: listed apart in the source

T2 sequence (P25942 21-193 limits assumed): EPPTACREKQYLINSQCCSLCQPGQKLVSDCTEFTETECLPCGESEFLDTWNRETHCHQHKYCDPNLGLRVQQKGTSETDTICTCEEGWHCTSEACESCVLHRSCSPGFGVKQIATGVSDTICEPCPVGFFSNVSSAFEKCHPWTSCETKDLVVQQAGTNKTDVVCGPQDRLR
T1 sequence (P25942 21-277): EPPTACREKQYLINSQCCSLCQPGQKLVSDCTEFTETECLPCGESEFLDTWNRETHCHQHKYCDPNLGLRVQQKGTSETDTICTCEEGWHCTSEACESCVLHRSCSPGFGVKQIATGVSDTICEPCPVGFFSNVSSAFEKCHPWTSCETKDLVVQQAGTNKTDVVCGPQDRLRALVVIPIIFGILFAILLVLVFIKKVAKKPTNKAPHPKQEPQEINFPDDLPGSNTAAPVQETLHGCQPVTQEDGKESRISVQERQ

EC50 [1]: 0.0333 µg/mL
IC50 [2]: 0.122 µg/mL
B1: human-murine chimeric antibody 9E5-C (antibody, IgG1, V domains shown)
VH: QVQLQQPGADLVKPGASVKMSCKASGYILTTYWITWVKQRPGQGLEWIGDIHPGSGSTKYNEKFKSKATLTVDTSSSTAYMQLTRLSSEDSAVYYCARRDYWGQGTTLTVSS
VL: DVLMTQSPLSLPVSLGDQASISCRSSQNIVNSQGNTYLEWYLQKPGESPKLLIYKVTNRFSGVPDRFSGSGSGTDFTLKISRVEAEDLGVYYCFQASLVPWTFGGGTKLEIK
notes: also called 9E5 chimeric antibody

EC50 [3]: 0.14 µg/mL
IC50 [4]: 0.308 µg/mL
B2: humanized antibody hu9E5 (H1c heavy chain and L1a light chain) (antibody, human IgG1, kappa, V domains shown)
VH: QVQLVQSGAEVKKPGASVKVSCKASGYILTTYWITWVRQAPGQGLEWMGDIHPGSGSTKYNEKFKSRVTLTVDTSISTAYMELSRLRSEDTAVYYCARRDYWGQGTTVTVSS
VL: DIVMTQSPLSLPVTPGEPASISCRSSQNIVNSQGNTYLEWYLQKPGQSPQLLIYKVTNRFSGVPDRFSGSGSGTDFTLKISRVEAEDVGVYYCFQASLVPWTFGGGTKVEIKR
notes: also called Hu9E5-25
